Data taken from patent US20060134741.

T1: sentrinized RanGAP (construct not stated), P46060
T1 chain: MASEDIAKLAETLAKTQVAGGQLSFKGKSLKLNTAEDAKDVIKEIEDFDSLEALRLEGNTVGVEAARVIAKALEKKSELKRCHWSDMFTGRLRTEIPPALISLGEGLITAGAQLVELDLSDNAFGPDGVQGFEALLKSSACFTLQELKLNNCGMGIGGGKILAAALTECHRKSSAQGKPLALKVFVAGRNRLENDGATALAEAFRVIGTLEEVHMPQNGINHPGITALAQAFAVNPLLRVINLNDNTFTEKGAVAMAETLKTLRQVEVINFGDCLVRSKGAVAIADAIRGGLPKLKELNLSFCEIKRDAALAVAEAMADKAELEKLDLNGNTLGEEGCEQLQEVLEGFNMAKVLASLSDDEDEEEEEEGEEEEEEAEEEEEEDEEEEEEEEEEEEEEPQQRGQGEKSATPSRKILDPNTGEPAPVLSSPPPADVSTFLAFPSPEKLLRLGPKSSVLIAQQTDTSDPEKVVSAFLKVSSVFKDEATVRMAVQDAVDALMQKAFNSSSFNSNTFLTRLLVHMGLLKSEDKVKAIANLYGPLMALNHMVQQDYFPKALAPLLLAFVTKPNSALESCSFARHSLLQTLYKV

T2: Sentrinized PML (construct not stated), P29590
T2 chain: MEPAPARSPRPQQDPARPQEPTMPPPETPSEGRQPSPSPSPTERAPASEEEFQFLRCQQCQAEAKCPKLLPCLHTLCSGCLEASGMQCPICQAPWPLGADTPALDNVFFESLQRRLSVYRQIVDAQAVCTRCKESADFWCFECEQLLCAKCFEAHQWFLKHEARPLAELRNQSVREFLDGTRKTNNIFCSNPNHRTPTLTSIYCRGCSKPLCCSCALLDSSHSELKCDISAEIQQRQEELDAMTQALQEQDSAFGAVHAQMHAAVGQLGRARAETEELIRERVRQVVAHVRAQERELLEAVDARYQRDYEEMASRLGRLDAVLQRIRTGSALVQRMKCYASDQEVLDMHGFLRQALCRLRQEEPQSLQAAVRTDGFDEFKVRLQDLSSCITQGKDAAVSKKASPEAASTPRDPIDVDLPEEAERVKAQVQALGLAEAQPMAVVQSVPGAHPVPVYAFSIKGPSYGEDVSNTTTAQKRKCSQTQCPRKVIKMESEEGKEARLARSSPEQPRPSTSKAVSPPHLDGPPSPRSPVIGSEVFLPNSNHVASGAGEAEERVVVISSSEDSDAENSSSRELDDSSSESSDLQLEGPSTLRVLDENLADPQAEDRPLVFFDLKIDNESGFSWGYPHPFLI


What was measured:
[1] = tested on: sentrin-modified proteins (Sentrin-1 conjugates)
[2] = target: T1, sentrinized RanGAP (construct not …)
[3] = target: T2, Sentrinized PML (construct not stated), …

Molecule | protease activity against sentrin-modified proteins [1] | effect on sentrinized RanGAP [2] | effect on sentrinized PML [3]
HsUlp1 (full length, 371 aa) | extensive studies indicated that HsUlp I had no activity against sentrin-modified proteins |  | 
SENP2 (protein) MVTSACNGTRNVAPSGEVFSNSSSCELTGSGSWNNMLKLGNKSPNGISDYPKIRVTVTRDQPRRVLPSFGFTLNSEGCNRRPGGRRHSKGNPESSLMWKPQEQAVTEMISEESGKGLRRPHCTVEEGVQKEEREKYRKLLERLKESGHGNSVCPVTSNYHSSQRSQMDTLKTKGWGEEQNHGVKTTQFVPKQYRLVETRGPLCSLRSEKRCSKGKITDTEKMVGIRFENESRRGYQLEPDLSEEVSARLRLGSGSNGLLRRKVSIIETKEKNCSGKERDRRTDDLLELTEDMEKEISNALGHGPQDEILSSAFKLRITRGDIQTLKNYHWLNDEVINFYMNLLVERNKKQGYPALHVFSTFFYPKLKSGGYQAVKRWTKGVNLFEQEIILVPIHRKVHWSLVVIDLRKKCLKYLDSMGQKGHRICEILLQYLQDESKTKRNSDLNLLEWTHHSMKPHEIPQQLNGSDCGMFTCKYADYISRDKPITFTQHQMPLFRKKMVWEILHQQLL |  | sentrinized RanGAP remained intact | Sentrinized PML, a tumor suppressor that resides in the nucleus, was selectively affected by SENP2
